Reference: the RNAGym collection of RNA variant scans (doi:10.1101/gr.219683.116)

B1: mRNA-splicing (parent)
chain: AGUUGCUGCUGGGAGCUCCAGCACAGUGAAAUGGACAGAAGGGCAGAGCAA

Variants of: B1
Experiment: exon inclusion enrichment index; higher = more inclusion; WT1 exon 5 minigene, HEK293

| Variant | exon inclusion enrichment index |
| --- | --- |
| AGUUCGCGCCGGGAGCCACAGCACAGUGAAAUGGACAGAAGGGCAGAGCAA | 3.59 |
| AGUUCGCGCCGGGAGCCGCAGCACAGUGAAAUGGACAGAAGGGCAGAGCAA | 4.56 |
| AGUUCGCGCCGGGAGCCUCAGCACAGUGAAAUGGACAGAAGGGCAGAGCAA | 3.54 |
| AGUUCGCGCCGGGAGCUCCAGCACAGAAAAAUGGACAGAAGGGCAGAGCAA | 3.01 |
| AGUUCGCGCCGGGAGCUCCAGCACAGAUAAAUGGACAGAAGGGCAGAGCAA | 1.9 |
| AGUUCGCGCCGGGAGCUCCAGCACAGACAAAUGGACAGAAGGGCAGAGCAA | 3.86 |
| AGUUCGCGCCGGGAGCUCCAGCACAGUGAAAUGGACAGAAGGGCAAUGCAA | 3.68 |
| AGUUCGCGCCGGGAGCUCCAGCACAGUGAAAUGGACAGAAGGGCAAGGCAA | 1.33 |
| AGUUCGCGCCGGGAGCUCCAGCACAGUGAAAUGGACAGAAGGGCAACGCAA | 3.6 |
| AGUUCGCGCCGGGAGCUCCAGCACAGUGAAAUGGACAGAAGGGCAGACCAA | 3.91 |
| AGUUCGCGCCGGGAGCUCCAGCACAGUGAAAUGGACAGAAGGGCAGAUCAA | 4.46 |
| AGUUCGCGCCGGGAGCUCCAGCACAGUGAAAUGGACAGAAGGGCAGAACAA | 4.29 |
| AGUUCGCGCCGGGAGCUCCAGCACAGUGAAAACGACAGAAGGGCAGAGCAA | 3.67 |
| AGUUCGCGCCGGGAGCUCCAGCACAGUGAAAAAGACAGAAGGGCAGAGCAA | 2 |
| AGUUCGCGCCGGGAGCUCCAGCACAGUGAAAAUGACAGAAGGGCAGAGCAA | 2.76 |
| AGUUCGCGCCGGGAGCAUCAGCACAGUGAAAUGGACAGAAGGGCAGAGCAA | 3.37 |
| AGUUCGCGCCGGGAGCAACAGCACAGUGAAAUGGACAGAAGGGCAGAGCAA | 2.9 |
| AGUUCGCGCCGGGAGCAGCAGCACAGUGAAAUGGACAGAAGGGCAGAGCAA | 4.2 |
| AGUUCGCGCCGGGAGCUCCAGCACAGUGAAAGGGACAGAAGGGCAGAGCAA | 0.601 |
| AGUUCGCGCCGGGAGCUCCAGCACAGUGAAACGGACAGAAGGGCAGAGCAA | 4.75 |
| AGUUCGCGCCGGGAGCUCCAGCACAGUGAAAAGGACAGAAGGGCAGAGCAA | 3.12 |
| AGUUCGCGCCGGGAGCUCCAGCACAGUGAAAUGGACAGAAGGGCACGGCAA | 3.52 |
| AGUUCGCGCCGGGAGCUCCAGCACAGUGAAAUGGACAGAAGGGCACCGCAA | 2.58 |
| AGUUCGCGCCGGGAGCUCCAGCACAGUGAAAUGGACAGAAGGGCACUGCAA | 2.37 |
| AGUUCGCGCCGGGAGCCCCAGCACAGUGAAAUGGACAGAAGGGCAGAGCAA | 3.43 |
| AGUUCGCGCCGGGAGCGCCAGCACAGUGAAAUGGACAGAAGGGCAGAGCAA | 1.86 |

| Variant | exon inclusion enrichment index |
| --- | --- |
| AGUUCGCGCCGGGAGCACCAGCACAGUGAAAUGGACAGAAGGGCAGAGCAA | 3.8 |
| AGUUCGCGCCGGGAGCUCCAGCACAGGGAAAUGGACAGAAGGGCAGAGCAA | 2.02 |
| AGUUCGCGCCGGGAGCUCCAGCACAGCGAAAUGGACAGAAGGGCAGAGCAA | 4.97 |
| AGUUCGCGCCGGGAGCUCCAGCACAGAGAAAUGGACAGAAGGGCAGAGCAA | 3.66 |
| AGUUCGCGCCGGGAGCGACAGCACAGUGAAAUGGACAGAAGGGCAGAGCAA | 3.39 |
| AGUUCGCGCCGGGAGCGUCAGCACAGUGAAAUGGACAGAAGGGCAGAGCAA | 3.11 |
| AGUUCGCGCCGGGAGCGGCAGCACAGUGAAAUGGACAGAAGGGCAGAGCAA | 2.48 |
| AGUUCGCGCCGGGAGCUCCAGCACAGGCAAAUGGACAGAAGGGCAGAGCAA | 2.55 |
| AGUUCGCGCCGGGAGCUCCAGCACAGGAAAAUGGACAGAAGGGCAGAGCAA | 3.58 |
| AGUUCGCGCCGGGAGCUCCAGCACAGGUAAAUGGACAGAAGGGCAGAGCAA | 0.0303 |
| AGUUCGCGCCGGGAGCUCCAGCACAGUGAAAUGGACAGAAGGGCAUAGCAA | 2.51 |
| AGUUCGCGCCGGGAGCUCCAGCACAGUGAAAUGGACAGAAGGGCACAGCAA | 2.78 |
| AGUUCGCGCCGGGAGCUCCAGCACAGUGAAAUGGACAGAAGGGCAAAGCAA | 3.39 |
| AGUUCGCGCCGGGAGCUCCAGCACAGUGAAAGUGACAGAAGGGCAGAGCAA | 1.88 |
| AGUUCGCGCCGGGAGCUCCAGCACAGUGAAAGAGACAGAAGGGCAGAGCAA | 1.79 |
| AGUUCGCGCCGGGAGCUCCAGCACAGUGAAAGCGACAGAAGGGCAGAGCAA | 3.31 |
| AGUUCGCGCCGGGAGCUCCAGCACAGUGAAACCGACAGAAGGGCAGAGCAA | 3.68 |
| AGUUCGCGCCGGGAGCUCCAGCACAGUGAAACAGACAGAAGGGCAGAGCAA | 2.09 |
| AGUUCGCGCCGGGAGCUCCAGCACAGUGAAACUGACAGAAGGGCAGAGCAA | 2.45 |
| AGUUCGCGCCGGGAGCUCCAGCACAGUGAAAUGGACAGAAGGGCAUCGCAA | 3.73 |
| AGUUCGCGCCGGGAGCUCCAGCACAGUGAAAUGGACAGAAGGGCAUGGCAA | 2.91 |
| AGUUCGCGCCGGGAGCUCCAGCACAGUGAAAUGGACAGAAGGGCAUUGCAA | 3.93 |
| AGUUCGCGCCGGGAGCUCCAGCACAGCAAAAUGGACAGAAGGGCAGAGCAA | 3.28 |
| AGUUCGCGCCGGGAGCUCCAGCACAGCCAAAUGGACAGAAGGGCAGAGCAA | 4.03 |
| AGUUCGCGCCGGGAGCUCCAGCACAGCUAAAUGGACAGAAGGGCAGAGCAA | 2.8 |
